Reference: patent US20220259317A1

Target: FLT3 CAR (Short Form; NC7 based FLT3 CAR), SEQ ID NO: 1/29
Assay: flow cytometry of FLT3 CAR transduced T cells stained with biotinylated protein L and streptavidin PE

Sequence of FLT3 CAR (Short Form; NC7 based FLT3 CAR), SEQ ID NO: 1/29 (chain, as listed by the source): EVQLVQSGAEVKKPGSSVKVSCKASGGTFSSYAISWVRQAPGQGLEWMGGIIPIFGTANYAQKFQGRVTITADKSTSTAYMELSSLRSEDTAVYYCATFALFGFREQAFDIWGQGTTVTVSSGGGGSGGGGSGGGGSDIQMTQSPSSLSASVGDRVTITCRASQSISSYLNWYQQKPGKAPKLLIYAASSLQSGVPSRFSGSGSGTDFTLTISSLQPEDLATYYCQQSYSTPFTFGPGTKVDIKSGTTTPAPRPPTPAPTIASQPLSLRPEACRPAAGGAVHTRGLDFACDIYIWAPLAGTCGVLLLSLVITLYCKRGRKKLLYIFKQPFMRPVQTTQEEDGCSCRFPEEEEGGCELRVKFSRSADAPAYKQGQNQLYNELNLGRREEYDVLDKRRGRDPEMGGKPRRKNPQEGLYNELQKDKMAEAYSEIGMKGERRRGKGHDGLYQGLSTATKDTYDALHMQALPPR

- % positive cells: 77.1%
Substance: biotinylated protein L (Genscript)
